# Laboratory results taken from article PMC9894263.
# Molecular target: GLUT4 template complex Munc18-3:Syntaxin-4:VAMP2 (rat | not stated) (UniProt Q08850)
# Assay: optical tweezers
binder,measurement,value
"full-length cysteine-free SNAP-23 ([change], [change], [change], [change], [change]) (natural protein) MDDLSPEEIQLRAHQVTDESLESTRRILGLAIESQDAGIKTITMLDEQGEQLNRIEEGMDQINKDMREAEKTLTELNKSSGLSVSPSNRTKNFESGKNYKATWGDGGDSSPSNVVSKQPSRITNGQPQQTTGAASGGYIKRITNDAREDEMEENLTQVGSILGNLKNMALDMGNEIDAQNQQIQKITEKADTNKNRIDIANTRAKKLIDS",probability of SNAP-23 binding,0.42
